Assays:
[1] = molecular target: p62 ZZ domain (aa 120-171) (human, UniProt Q13501 120-171)
[2] = molecular target: p62 ZZ domain (aa 115-190) (human, UniProt Q13501 115-190); assay: MST

Row | Kd [1] [µM] | Kd [2] [µM] | Binder
1 | 14 | 3.2 | RAEE [RAEE peptide]
2 | 5.6 | 1.9 | REEE [REEE peptide]
